Source: patent US20230078173A1 (ELIXIRON IMMUNOTHERAPEUTICS HONG KONG, published 2023)
Numbering of substitutions follows the chain as printed. Names and notes keep the numbering of the source. Blank lines part the entries; values can stand above or below the binder they belong to.

Assays:
[1] = molecular target: T1, recombinant human PD-L1-mFc fusion protein (human, UniProt Q9NZQ7 19-238); assay: ELISA, human PD-L1-mFc immobilised (1 µg/mL), anti-human kappa-HRP detection
T1 construct: also called hPD-L1; huPD-L1
T1 sequence (Q9NZQ7 19-238): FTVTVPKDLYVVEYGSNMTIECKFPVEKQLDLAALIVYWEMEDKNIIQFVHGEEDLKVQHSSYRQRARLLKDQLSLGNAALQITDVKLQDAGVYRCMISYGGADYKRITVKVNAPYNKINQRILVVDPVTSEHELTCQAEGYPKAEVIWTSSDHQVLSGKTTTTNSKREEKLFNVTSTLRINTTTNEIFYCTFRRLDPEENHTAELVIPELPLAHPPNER
Method: (§1) The wells were washed with wash solution (0.05% Tween20 in imidazole-buffered saline) and blocked with 1% BSA. […] After incubation at 37° C. for 1 hr, the wells were washed with wash solution. Peroxidase-conjugated Goat anti-human kappa Light chain antibody (Sigma) was applied to each well at 37° C. for 1 h incubation. […] After washing, the wells were developed with TMB substrate for 5-10 min at RT and then stopped with 1 N HCl. Thereafter, absorbance was measured at 450 nm and 650 nm. EC50 and IC50 values were calculated using GraphPad Prism7.

[2] = molecular target: T2, IL10Rα-Fc fusion protein (human, UniProt Q13651 22-235); assay: ELISA, IL10Rα-Fc immobilised (1 µg/mL)
T2 construct: Bought from R&D Systems; also called human IL10Rα
T2 sequence (looked up): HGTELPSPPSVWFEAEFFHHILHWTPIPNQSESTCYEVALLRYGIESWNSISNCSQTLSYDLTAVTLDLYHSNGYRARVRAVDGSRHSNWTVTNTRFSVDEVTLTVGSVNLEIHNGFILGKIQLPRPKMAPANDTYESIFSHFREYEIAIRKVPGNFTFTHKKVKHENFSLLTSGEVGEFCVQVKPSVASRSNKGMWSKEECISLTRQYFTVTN
Method: as §1

[3] = molecular target: T1, recombinant human PD-L1-mFc fusion …; assay: competition ELISA, PD-L1 immobilised, competitor biotin-PD-1-Fc (30 µg/mL)
Method: To test the competition activity, serial dilutions of anti-PD-L1 or anti-PD-L1/IL10 fusion proteins were added.
A recombinant human PD-L1-mFc fusion protein (1 μg/mL), recombinant cynomolgus PD-L1 (1 μg/mL; Sino Biological), or an IL10Rα-Fc fusion protein (1 μg/mL, R&D Systems) were immobilized on 96 well microtiter plate at a concentration of 1 μg/ml in Coating Solution (SeraCare) overnight at 4° C. The wells were washed with wash solution (0.05% Tween20 in imidazole-buffered saline) and blocked with 1% BSA. Serial dilutions of anti-PD-L1 or anti-PD-L1/IL10 fusion proteins were added to wells. After incubation at 37° C. for 1 hr, the wells were washed with wash solution. Peroxidase-conjugated Goat anti-human kappa Light chain antibody (Sigma) was applied to each well at 37° C. for 1 h incubation. […] After washing, the wells were developed with TMB substrate for 5-10 min at RT and then stopped with 1 N HCl. Thereafter, absorbance was measured at 450 nm and 650 nm. EC50 and IC50 values were calculated using GraphPad Prism7.

[4] = molecular target: PD-L1 on PD-L1-presenting U2OS bioassay cells (UniProt Q9NZQ7 19-290); assay: cell-based or functional assay
PD-L1 on PD-L1-presenting U2OS bioassay cells, sequence (Q9NZQ7 19-290): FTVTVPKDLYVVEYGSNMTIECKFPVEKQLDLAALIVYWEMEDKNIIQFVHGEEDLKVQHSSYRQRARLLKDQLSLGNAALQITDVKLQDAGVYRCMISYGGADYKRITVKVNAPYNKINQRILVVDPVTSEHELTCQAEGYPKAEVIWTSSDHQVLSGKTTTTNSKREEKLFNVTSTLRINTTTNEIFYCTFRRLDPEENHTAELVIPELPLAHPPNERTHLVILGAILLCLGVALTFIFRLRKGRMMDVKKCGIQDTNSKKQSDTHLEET

[5] = molecular target: T3, recombinant human PD-L1-His (human, UniProt Q9NZQ7 19-238); assay: BLI (Octet RED96), antibody captured on AHC biosensor, PD-L1-His in solution, 1:1 model;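 note: rates obtained by 1:1 Langmuir fitting of the binding response, using a 2.5 min association phase then a 5 min dissociation phase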
T3 construct: Analyte of the BLI assay; also called hPD-L1
T3 sequence (Q9NZQ7 19-238): as the sequence (Q9NZQ7 19-238) above
Method: Rate constants were calculated by curve fitting analyses (1:1 Langmuir model) of binding response with a 2.5-minute association and 5-minute dissociation interaction time.

[6] = molecular target: T4, recombinant cynomolgus PD-L1 (cynomolgus monkey, UniProt Q9NZQ7 19-238 (human entry)); assay: ELISA, cynomolgus PD-L1 immobilised (1 µg/mL)
T4 construct: also called cynoPD-L1; Cynomolgus PD-L1.ECD
T4 sequence (Q9NZQ7 other isoform, or with tags, fused parts or gaps limits assumed): as the sequence (Q9NZQ7 19-238) above, with A33T, A34S, S62N, R68Q, Q82R, F173L, T185A, T192I, H215L counted along it
Method: as §1

EC50 [1]: 0.164 nM | EC50 [2]: 66.3 nM | IC50 [3]: 1.2 nM
B1: PHS219/IL10 (antibody, human IgG1, kappa, N297A)
heavy: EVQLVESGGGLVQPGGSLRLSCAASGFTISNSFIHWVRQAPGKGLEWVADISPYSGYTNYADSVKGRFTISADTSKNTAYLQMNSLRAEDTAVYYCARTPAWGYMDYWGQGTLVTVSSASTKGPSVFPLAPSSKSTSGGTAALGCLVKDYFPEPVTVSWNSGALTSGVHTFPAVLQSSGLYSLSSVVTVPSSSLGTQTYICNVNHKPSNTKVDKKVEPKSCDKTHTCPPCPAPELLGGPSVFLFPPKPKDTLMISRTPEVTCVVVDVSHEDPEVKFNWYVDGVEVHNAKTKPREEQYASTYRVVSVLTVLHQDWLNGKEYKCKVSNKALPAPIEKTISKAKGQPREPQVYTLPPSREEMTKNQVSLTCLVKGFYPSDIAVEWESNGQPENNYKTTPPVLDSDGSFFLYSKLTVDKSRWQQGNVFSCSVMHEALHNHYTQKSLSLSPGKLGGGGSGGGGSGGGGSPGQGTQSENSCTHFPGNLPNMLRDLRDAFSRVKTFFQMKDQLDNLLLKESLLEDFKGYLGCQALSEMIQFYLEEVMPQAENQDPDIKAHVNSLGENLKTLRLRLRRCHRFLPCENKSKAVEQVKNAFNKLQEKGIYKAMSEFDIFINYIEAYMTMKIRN
light: DIQMTQSPSSLSASVGDRVTITCRASQDVSSSVAWYQQKPGKAQKLLISWATSLYSGVPSRFSGSGSGTDFTLTISSLQPEDFATYYCQQYNNFPYTFGQGTKVEIKRTVAAPSVFIFPPSDEQLKSGTASVVCLLNNFYPREAKVQWKVDNALQSGNSQESVTEQDSKDSTYSLSSTLTLSKADYEKHKVYACEVTHQGLSSPVTKSFNRGEC

EC50 [1]: 0.204 nM | IC50 [3]: 38900 nM
B2: PHS219 (antibody, human IgG1, kappa, N297A)
heavy: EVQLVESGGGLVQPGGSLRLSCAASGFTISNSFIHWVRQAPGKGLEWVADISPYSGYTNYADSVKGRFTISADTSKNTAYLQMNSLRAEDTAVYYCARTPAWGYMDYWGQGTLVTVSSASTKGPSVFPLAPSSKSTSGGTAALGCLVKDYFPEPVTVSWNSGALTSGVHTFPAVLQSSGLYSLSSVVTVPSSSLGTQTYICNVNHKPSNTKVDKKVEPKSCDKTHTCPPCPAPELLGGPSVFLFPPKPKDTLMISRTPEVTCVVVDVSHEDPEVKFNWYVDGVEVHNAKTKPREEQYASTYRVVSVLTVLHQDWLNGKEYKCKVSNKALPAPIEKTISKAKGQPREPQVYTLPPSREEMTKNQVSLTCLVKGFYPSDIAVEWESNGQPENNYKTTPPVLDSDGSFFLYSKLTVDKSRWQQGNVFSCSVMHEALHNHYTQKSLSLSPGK
light: B1 light

IC50, blocking PD-1/PD-L1 signaling (PathHunter PD-1 Signaling Bioassay, U2OS PD-L1 cells + Jurkat PD-1 signaling cells) [4]: 3.56 nM | Kd [5]: 1.88 nM | koff [5]: 0.000542 s⁻¹ | kon [5]: 288000 M⁻¹ s⁻¹
B3: PHS102.HSYPP31F (antibody, human IgG1, kappa, N297A, V domains shown)
VH: EVQLVESGGGLVQPGGSLRLSCAASGFTIEDSYIHWVRQAPGKGLEWVARIDPITGLTHYADSVKGRFTISADTSKNTAYLQMNSLRAEDTAVYYCARAFSWFPDYWGQGTLVTVSS
VL: DIQMTQSPSSLSASVGDRVTITCRAGQDVYKAVAWYQQKPGKAPKLLIYWSTNLYSGVPSRFSGSGSGTDFTLTISSLQPEDFATYYCQQIMEPPVTFGQGTKVEIKR
notes: full-length human IgG1-N297A / kappa

Kd [5]: 1.92 nM | koff [5]: 0.00067 s⁻¹ | kon [5]: 350000 M⁻¹ s⁻¹
B4: PHS102.YT10H (antibody, human IgG1, kappa, N297A, V domains shown)
VH: B3 VH with E30S, S32A, D52E, I54L, T55S, L57R, H59D, P104M
VL: B3 VL with T74M, I91H, M92D, E93K, P94T, V96T
notes: as for B3

Kd [5]: 2.16 nM | koff [5]: 0.000713 s⁻¹ | kon [5]: 330000 M⁻¹ s⁻¹
B5: PHS102.YT6D (antibody, human IgG1, kappa, N297A, V domains shown)
VH: B3 VH with E30S, S32G, I54L, L57R, H59M, F103W
VL: B3 VL with E93S, V96P

IC50, blocking PD-1/PD-L1 signaling (PathHunter PD-1 Signaling Bioassay, U2OS PD-L1 cells + Jurkat PD-1 signaling cells) [4]: 3.74 nM | Kd [5]: 2.03 nM | koff [5]: 0.000653 s⁻¹ | kon [5]: 321000 M⁻¹ s⁻¹
B6: PHS102.HSYPP411C (antibody, human IgG1, kappa, N297A, V domains shown)
VH: EVQLVESGGGLVQPGGSLRLSCAASGFTIDNTYIHWVRQAPGKGLEWVARIDPANGKTTYADSVKGRFTISADTSKNTANLQMNSLRAEDTAVYYCARSFSWWADYWGQGTLVTVSS
VL: B3 VL with I91F, M92N, E93L, P94Q, V96T
notes: as for B3

Kd [5]: 1.84 nM | koff [5]: 0.000615 s⁻¹ | kon [5]: 334000 M⁻¹ s⁻¹
B7: PHS102.YP11F (antibody, human IgG1, kappa, N297A, V domains shown)
VH: B6 VH with A54V, N55S, K57R, T59R, N80D, S99A, W103F, A104P
VL: B3 VL with I91F, M92G, E93A, P94T, V96I
notes: as for B3

EC50 [1]: 0.121 nM | EC50 [2]: 37.5 nM | IC50 [3]: 0.188 nM
B8: Durvalumab/IL10 (antibody, human IgG1, kappa, N297A)
heavy: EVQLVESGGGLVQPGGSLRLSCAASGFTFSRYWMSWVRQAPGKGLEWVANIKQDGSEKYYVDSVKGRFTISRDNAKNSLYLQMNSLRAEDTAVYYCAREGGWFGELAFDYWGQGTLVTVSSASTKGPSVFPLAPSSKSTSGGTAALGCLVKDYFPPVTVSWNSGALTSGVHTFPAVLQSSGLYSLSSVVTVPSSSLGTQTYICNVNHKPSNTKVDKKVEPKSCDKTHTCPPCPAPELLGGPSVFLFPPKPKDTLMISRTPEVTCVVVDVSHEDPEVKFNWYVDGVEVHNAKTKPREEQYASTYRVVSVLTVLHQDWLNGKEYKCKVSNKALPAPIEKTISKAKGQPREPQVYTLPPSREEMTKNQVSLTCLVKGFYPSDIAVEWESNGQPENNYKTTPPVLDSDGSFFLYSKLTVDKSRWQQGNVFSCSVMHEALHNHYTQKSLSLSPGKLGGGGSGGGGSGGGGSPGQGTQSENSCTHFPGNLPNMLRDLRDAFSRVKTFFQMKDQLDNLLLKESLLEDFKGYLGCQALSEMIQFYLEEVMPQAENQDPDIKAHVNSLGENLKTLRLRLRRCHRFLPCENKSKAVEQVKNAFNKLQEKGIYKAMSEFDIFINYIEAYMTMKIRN
light: EIVLTQSPGTLSLSPGERATLSCRASQRVSSSYLAWYQQKPGQAPRLLIYDASSRATGIPDRFSGSGSGTDFTLTISRLEPEDFAWYYCQQYGSLPWTFGQGTKVEIKRTVAAPSVFIFPPSDEQLKSGTASVVCLLNNFYPREAKVQWKVDNALQSGNSQESVTEQDSKDSTYSLSSTLTLSKADYEKHKVYACEVTHQGLSSPVTKSFNRGEC

IC50 [3]: 0.239 nM | EC50 [6]: 0.14 nM
B9: Atezolizumab (antibody)
heavy: not shown
light: DIQMTQSPSSLSASVGDRVTITCRASQDVSTAVAWQQKPGKAPKLLIYSASFLYSGVPSRFSGSGSGTDFTLTISSLQPEDFATYYCQQYLYHPATFGQGTKVEIKRRTVAAPSVFIFPPSDEQLKSGTASVVCLLNNFYPREAKVQWKVDNALQSGNSQESVTEQDSKDSTYSLSSTLTLSKADYEKHKVYACEVTHQGLSSPVTKSFNRGEC
notes: also called YW243.55.S70; MPDL3280A

EC50 [1]: 0.0865 nM | EC50 [2]: 87.2 nM | IC50 [3]: 0.124 nM
B10: Atezolizumab/IL10 (antibody)
heavy: not shown
light: B9 light

EC50 [2]: 25.9 nM
B11: Avelumab/IL10 (antibody, human IgG1, lambda)
heavy: not shown
light: QSALTQPASVSGSPGQSITISCTGTSSDVGGYNYVSWYQQHPGKAPKLMIYDVSNRPSGVSNRFSGSKSGNTASLTISGLQAEDEADYYCSSYTSSSTRVFGTGTKVTVLGQPKANPTVTLFPPSSEELQANKATLVCLISDFYPGAVTVAWKADGSPVKAGVETTKPSKQSNNKYAASSYLSLTPEQWKSHRSYSCQVTHEGSTVEKTVAPTECS

EC50 [1]: 0.0784 nM | IC50, blocking PD-1/PD-L1 signaling (PathHunter PD-1 Signaling Bioassay, U2OS PD-L1 cells + Jurkat PD-1 signaling cells) [4]: 3.18 nM | Kd [5]: 14.4 nM | koff [5]: 0.00679 s⁻¹ | kon [5]: 473000 M⁻¹ s⁻¹ | IC50 [3]: 0.182 nM | EC50 [6]: 0.216 nM
B12: PHS102 (antibody, human IgG1, kappa, N297A)
heavy: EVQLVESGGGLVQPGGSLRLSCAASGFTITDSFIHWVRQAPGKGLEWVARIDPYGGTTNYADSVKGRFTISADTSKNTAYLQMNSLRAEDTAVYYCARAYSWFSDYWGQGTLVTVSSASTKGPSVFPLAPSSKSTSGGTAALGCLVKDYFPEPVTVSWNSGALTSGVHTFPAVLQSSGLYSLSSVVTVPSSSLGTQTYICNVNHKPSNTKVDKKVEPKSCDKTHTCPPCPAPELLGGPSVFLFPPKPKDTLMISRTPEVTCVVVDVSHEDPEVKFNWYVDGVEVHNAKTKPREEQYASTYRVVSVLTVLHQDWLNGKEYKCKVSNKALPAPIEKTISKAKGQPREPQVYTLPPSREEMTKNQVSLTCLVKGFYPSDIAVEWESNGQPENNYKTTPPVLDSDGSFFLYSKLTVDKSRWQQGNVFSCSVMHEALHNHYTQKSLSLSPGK
light: DIQMTQSPSSLSASVGDRVTITCRAGQDVYKAVAWYQQKPGKAPKLLIYWSTNLYSGVPSRFSGSGSGTDFTLTISSLQPEDFATYYCQQGSTWPLTFGQGTKVEIKRTVAAPSVFIFPPSDEQLKSGTASVVCLLNNFYPREAKVQWKVDNALQSGNSQESVTEQDSKDSTYSLSSTLTLSKADYEKHKVYACEVTHQGLSSPVTKSFNRGEC

EC50 [1]: 0.0798 nM | IC50, blocking PD-1/PD-L1 signaling (PathHunter PD-1 Signaling Bioassay, U2OS PD-L1 cells + Jurkat PD-1 signaling cells) [4]: 4.22 nM | EC50 [2]: 94.3 nM | IC50 [3]: 0.061 nM
B13: PHS102/IL10 (antibody, human IgG1, kappa, N297A)
heavy: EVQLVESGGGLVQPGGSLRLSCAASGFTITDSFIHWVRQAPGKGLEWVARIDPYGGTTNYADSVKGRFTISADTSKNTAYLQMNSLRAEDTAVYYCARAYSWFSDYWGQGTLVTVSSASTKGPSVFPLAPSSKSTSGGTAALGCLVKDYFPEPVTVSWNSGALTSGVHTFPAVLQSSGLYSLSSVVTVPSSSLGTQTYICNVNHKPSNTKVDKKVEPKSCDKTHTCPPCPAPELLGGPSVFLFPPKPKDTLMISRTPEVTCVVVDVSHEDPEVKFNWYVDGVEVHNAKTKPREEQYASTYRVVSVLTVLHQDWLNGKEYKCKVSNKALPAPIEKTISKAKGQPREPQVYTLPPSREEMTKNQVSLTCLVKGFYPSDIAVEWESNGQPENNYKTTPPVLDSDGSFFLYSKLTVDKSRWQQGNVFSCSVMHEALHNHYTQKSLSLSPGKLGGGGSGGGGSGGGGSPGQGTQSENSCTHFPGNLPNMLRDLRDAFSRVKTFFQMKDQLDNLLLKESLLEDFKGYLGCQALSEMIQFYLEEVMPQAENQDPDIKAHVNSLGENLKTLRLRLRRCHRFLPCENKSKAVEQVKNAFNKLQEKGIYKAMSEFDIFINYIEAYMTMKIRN
light: B12 light

IC50, blocking PD-1/PD-L1 signaling (PathHunter PD-1 Signaling Bioassay, U2OS PD-L1 cells + Jurkat PD-1 signaling cells) [4]: 6.07 nM | Kd [5]: 1.99 nM | koff [5]: 0.000603 s⁻¹ | kon [5]: 303000 M⁻¹ s⁻¹
B14: PHS102.YT7A (antibody, human IgG1, kappa, N297A)
heavy: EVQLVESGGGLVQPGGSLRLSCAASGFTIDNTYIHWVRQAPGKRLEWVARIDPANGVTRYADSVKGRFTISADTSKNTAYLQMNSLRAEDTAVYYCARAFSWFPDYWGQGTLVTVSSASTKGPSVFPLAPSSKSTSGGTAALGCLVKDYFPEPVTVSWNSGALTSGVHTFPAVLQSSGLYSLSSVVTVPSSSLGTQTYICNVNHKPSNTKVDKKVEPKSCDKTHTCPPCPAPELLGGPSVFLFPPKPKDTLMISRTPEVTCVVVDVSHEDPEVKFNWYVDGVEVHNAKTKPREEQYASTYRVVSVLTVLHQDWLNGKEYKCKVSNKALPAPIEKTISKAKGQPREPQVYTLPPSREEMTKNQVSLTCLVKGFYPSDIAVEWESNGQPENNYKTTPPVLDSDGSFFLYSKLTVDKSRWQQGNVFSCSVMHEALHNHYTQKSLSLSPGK
light: B12 light with G91Y, S92G, T93I, W94A, L96P
notes: as for B3

IC50, blocking PD-1/PD-L1 signaling (PathHunter PD-1 Signaling Bioassay, U2OS PD-L1 cells + Jurkat PD-1 signaling cells) [4]: 4.87 nM
B15: PHS102.YT7A/IL10 (antibody, human IgG1, kappa, N297A)
heavy: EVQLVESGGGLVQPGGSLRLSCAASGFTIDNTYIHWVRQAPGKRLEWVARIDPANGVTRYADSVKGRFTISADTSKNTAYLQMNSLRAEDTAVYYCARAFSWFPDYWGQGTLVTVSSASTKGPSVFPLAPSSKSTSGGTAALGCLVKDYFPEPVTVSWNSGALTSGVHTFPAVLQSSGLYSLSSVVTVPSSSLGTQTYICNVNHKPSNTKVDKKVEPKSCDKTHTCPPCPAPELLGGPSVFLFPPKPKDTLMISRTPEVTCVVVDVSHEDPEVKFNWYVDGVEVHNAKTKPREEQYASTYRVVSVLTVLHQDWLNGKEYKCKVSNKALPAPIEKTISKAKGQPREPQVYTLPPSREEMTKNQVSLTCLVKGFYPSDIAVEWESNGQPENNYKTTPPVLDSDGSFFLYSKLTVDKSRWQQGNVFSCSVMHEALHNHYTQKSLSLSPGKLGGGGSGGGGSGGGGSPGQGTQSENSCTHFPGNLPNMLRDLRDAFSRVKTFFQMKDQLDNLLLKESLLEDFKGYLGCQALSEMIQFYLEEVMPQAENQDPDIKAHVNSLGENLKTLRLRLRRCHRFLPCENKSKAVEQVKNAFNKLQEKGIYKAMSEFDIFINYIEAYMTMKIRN
light: B12 light with G91Y, S92G, T93I, W94A, L96P

IC50, blocking PD-1/PD-L1 signaling (PathHunter PD-1 Signaling Bioassay, U2OS PD-L1 cells + Jurkat PD-1 signaling cells) [4]: 2.47 nM
B16: PHS102.YT7H/IL10 (antibody, human IgG1, kappa, N297A)
heavy: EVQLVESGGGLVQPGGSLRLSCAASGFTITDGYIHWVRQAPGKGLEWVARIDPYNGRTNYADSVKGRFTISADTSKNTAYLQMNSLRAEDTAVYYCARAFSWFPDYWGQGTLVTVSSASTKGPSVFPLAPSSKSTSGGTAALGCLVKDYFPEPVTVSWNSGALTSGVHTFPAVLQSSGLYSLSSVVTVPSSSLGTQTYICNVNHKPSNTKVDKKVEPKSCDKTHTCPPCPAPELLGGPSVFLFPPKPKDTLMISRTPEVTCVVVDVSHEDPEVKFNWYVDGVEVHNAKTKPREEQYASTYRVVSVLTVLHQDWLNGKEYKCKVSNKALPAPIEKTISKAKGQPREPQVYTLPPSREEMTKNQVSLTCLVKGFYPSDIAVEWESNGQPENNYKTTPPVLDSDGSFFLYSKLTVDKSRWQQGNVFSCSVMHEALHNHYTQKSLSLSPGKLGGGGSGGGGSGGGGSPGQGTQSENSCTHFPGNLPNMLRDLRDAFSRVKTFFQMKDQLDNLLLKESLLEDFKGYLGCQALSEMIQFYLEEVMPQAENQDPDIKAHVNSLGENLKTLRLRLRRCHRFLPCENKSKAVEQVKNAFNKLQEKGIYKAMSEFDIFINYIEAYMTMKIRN
light: B12 light with G91H, S92G, T93N, W94A, L96I

IC50, blocking PD-1/PD-L1 signaling (PathHunter PD-1 Signaling Bioassay, U2OS PD-L1 cells + Jurkat PD-1 signaling cells) [4]: 3.48 nM | Kd [5]: 6.16 nM | koff [5]: 0.00125 s⁻¹ | kon [5]: 203000 M⁻¹ s⁻¹
B17: PHS102.YT7H (antibody, human IgG1, kappa, N297A)
heavy: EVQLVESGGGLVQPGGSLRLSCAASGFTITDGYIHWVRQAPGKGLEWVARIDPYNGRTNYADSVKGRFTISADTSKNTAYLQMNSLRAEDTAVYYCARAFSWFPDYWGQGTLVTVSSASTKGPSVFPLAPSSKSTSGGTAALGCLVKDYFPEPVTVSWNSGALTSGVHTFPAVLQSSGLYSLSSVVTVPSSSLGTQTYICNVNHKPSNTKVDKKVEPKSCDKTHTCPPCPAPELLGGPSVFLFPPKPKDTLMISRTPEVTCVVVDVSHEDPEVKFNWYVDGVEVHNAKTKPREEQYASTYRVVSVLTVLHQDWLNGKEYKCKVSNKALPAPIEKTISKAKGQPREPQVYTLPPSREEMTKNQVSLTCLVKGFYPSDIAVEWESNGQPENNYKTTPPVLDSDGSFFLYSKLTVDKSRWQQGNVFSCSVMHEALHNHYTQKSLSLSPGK
light: B12 light with G91H, S92G, T93N, W94A, L96I
notes: as for B3

Kd [5]: 5.51 nM | koff [5]: 0.00136 s⁻¹ | kon [5]: 247000 M⁻¹ s⁻¹
B18: PHS102.YP7G (antibody, human IgG1, kappa, N297A, V domains shown)
VH: B3 VH with E30D, S32T, I54A, T55N, L57M, H59R, T69M
VL: B3 VL with I91G, M92S, E93T, P94W, V96L
notes: as for B3
